Laboratory results reported in paper PMC7772510.

Biological target: complement fragment iC3b (UniProt P01024)
Test: ELISA

## GST-αM I-domain (domain or fragment)
  percent of the anticipated saturation level at 8 µM: 50%
